Target: FUS-RRM wild type (Homo sapiens, UniProt P35637 278-385)
Experiment: NMR titration

Sequence of FUS-RRM wild type (P35637 278-385): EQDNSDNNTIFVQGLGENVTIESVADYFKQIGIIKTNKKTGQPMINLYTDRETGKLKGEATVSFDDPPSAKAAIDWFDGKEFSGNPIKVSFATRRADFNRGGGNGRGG

TTAGGGTTAGGGTTAGGGTTAGGG (structured_DNA) [24-mer d(TTAGGG)4 (NMR)]
binding result: binds
